Laboratory results as given in patent US20250320281A1.

How the values were obtained:
Experiment in all cases: cell-based or functional assay
[1] = target: HIV-1 Env of isolate MG RM-D-008 (HIV-1)
[2] = target: HIV-1 Env of isolate CAAN.A2 (subtype B) (HIV-1)
[3] = target: HIV-1 envelope glycoprotein (Env) of isolate MGRM-C-026 (HIV-1)
[4] = target: HIV-1 Env of isolate 93TH305 (HIV-1)
[5] = target: HIV-1 Env of isolate 93IN905 (subtype C) (HIV-1)
[6] = target: HIV-1 Env of isolate MGRM-C-002 (subtype C) (HIV-1)
[7] = target: HIV-1 envelope glycoprotein (Env) of isolate MGRM-C-020 (HIV-1)
[8] = target: HIV-1 Env of isolate CMU02 (subtype AE) (HIV-1)
[9] = target: HIV-1 Env of isolate MGRM-AE-004 (subtype AE) (HIV-1)
[10] = target: HIV-1 Env of isolate MG RM-D-022 (HIV-1)
[11] = target: HIV-1 Env of isolate MGRM-A-006 (HIV-1)
[12] = target: HIV-1 Env of isolate MGRM-A-007 (subtype A) (HIV-1)
[13] = target: HIV-1 envelope glycoprotein (Env) of isolate MGRM-C-012 (HIV-1)
[14] = target: HIV-1 Env of isolate MGRM-AE-007 (HIV-1)
[15] = target: HIV-1 Env of isolate 92UG024 (pseudovirus) (HIV-1)
[16] = target: HIV-1 Env of isolate APV_13 (subtype B pseudovirus) (HIV-1)
[17] = target: HIV-1 Env of isolate QH0692.42 (subtype B pseudovirus) (HIV-1)
[18] = target: HIV-1 Env of isolate 93IN905 (subtype C pseudovirus) (HIV-1)
[19] = target: HIV-1 Env of isolate MGRM-AG-012 (HIV-1)
[20] = target: HIV-1 Env of isolate 98IN022 (HIV-1)
[21] = target: HIV-1 Env of isolate MGRM-C-026 (HIV-1)
[22] = target: HIV-1 Env of isolate 6535.3 (subtype B pseudovirus) (HIV-1)
[23] = target: HIV-1 Env of isolate MGRM-F1-004 (pseudovirus) (HIV-1)
[24] = target: HIV-1 Env of isolate MGRM-Chronic-B-001 (subtype B pseudovirus) (HIV-1)
[25] = target: HIV-1 Env of isolate MGRM-D-005 (pseudovirus) (HIV-1)
[26] = target: HIV-1 92RW020 envelope glycoprotein (Env) on pseudovirus (HIV-1)
[27] = target: HIV-1 Env of isolate MGRM-G-017 (HIV-1)
[28] = target: HIV-1 Env of isolate MGRM-G-006 (HIV-1)
[29] = target: HIV-1 Env of isolate MGRM-G-024 (HIV-1)

Sequence of 5329_C19 (PGT-136) (antibody) (VH): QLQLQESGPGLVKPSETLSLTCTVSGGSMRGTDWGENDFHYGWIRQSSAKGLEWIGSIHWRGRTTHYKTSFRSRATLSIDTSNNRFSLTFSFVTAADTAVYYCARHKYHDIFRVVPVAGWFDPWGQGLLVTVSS
Sequence of 5329_C19 (PGT-136) (antibody) (VL): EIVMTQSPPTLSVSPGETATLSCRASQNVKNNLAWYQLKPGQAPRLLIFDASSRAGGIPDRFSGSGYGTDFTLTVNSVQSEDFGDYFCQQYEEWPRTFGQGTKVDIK
Sequence of 5345_I01 (PGT-137) (antibody) (VH): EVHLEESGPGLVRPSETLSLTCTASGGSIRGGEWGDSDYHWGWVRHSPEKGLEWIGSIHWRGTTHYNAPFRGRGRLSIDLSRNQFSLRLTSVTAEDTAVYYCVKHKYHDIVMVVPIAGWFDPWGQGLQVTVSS
Sequence of 5345_I01 (PGT-137) (antibody) (VL): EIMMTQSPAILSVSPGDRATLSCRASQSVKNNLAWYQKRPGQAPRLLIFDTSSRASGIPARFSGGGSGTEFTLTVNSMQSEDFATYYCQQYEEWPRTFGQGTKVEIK
Sequence of 4980_N08 (PGT-143) (antibody) (VH): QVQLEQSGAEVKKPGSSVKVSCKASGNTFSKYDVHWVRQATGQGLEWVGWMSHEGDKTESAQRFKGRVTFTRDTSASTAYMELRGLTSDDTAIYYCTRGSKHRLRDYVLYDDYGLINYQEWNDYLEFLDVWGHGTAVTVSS
Sequence of 4980_N08 (PGT-143) (antibody) (VL): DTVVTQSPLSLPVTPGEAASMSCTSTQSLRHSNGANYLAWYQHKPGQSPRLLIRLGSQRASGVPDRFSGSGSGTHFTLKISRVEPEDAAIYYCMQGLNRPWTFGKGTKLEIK

Substance | IC50 (µg/mL), pseudovirus neutralization [1] [µg/mL] | IC50 neutralization [2] [µg/mL] | IC50 (µg/mL), pseudovirus neutralization [3] [µg/mL] | neutralization IC50 [4] [µg/mL] | IC50 neutralization [5] [µg/mL] | IC50 neutralization [6] [µg/mL] | IC50 (µg/mL), pseudovirus neutralization [8] [µg/mL] | IC50 (µg/mL), pseudovirus neutralization [9] [µg/mL] | IC50 [14] [µg/mL] | IC50, pseudovirus neutralization [15] [µg/mL] | IC50 (µg/mL), pseudovirus neutralization [16] [µg/mL] | IC50 (µg/mL), pseudovirus neutralization [17] [µg/mL] | IC50 (µg/mL), pseudovirus neutralization [18] [µg/mL] | IC50 [19] [µg/mL] | neutralization IC50 [20] [µg/mL] | neutralization IC50 [21] [µg/mL] | IC50 (µg/mL), pseudovirus neutralization [22] [µg/mL] | IC50, pseudovirus neutralization [23] [µg/mL] | IC50 (µg/mL), pseudovirus neutralization [24] [µg/mL] | IC50, pseudovirus neutralization [25] [µg/mL] | other results
5329_C19 (PGT-136) (antibody) | > 50 | > 50 | 0.006 | 20.2 | 0.011 | > 50 | > 50 | > 50 | – | – | – | – | – | – | – | – | – | – | – | – | IC50 (µg/mL), pseudovirus neutralization [7]: > 50 µg/mL; IC50 (µg/mL), pseudovirus neutralization [10]: > 50 µg/mL; IC50 [11]: > 50 µg/mL; IC50 (µg/mL), pseudovirus neutralization [12]: > 50 µg/mL; IC50 (µg/mL), pseudovirus neutralization [13]: > 50 µg/mL
5145_B14 (PGT-127) (antibody) | – | – | – | – | – | – | – | – | > 50 | > 50 | 0.026 | 0.129 | 0.024 | > 50 | 19.2 | 0.014 | 0.02 | 0.068 | > 50 | 6.02 | –
5345_I01 (PGT-137) (antibody) | > 50 | > 50 | 0.011 | > 50 | 0.042 | 8.03 | > 50 | > 50 | – | – | – | – | – | – | – | – | – | – | – | – | IC50 (µg/mL), pseudovirus neutralization [7]: > 50 µg/mL; IC50 (µg/mL), pseudovirus neutralization [10]: > 50 µg/mL; IC50 [11]: > 50 µg/mL; IC50 (µg/mL), pseudovirus neutralization [12]: > 50 µg/mL; IC50 (µg/mL), pseudovirus neutralization [13]: 0.102 µg/mL
5343_B08 (PGT-135) (antibody) | > 50 | 5.15 | 0.004 | > 50 | 0.011 | > 50 | > 50 | > 50 | – | – | – | – | – | – | – | – | – | – | – | – | IC50 (µg/mL), pseudovirus neutralization [7]: > 50 µg/mL; IC50 (µg/mL), pseudovirus neutralization [10]: > 50 µg/mL; IC50 [11]: > 50 µg/mL; IC50 (µg/mL), pseudovirus neutralization [12]: > 50 µg/mL; IC50 (µg/mL), pseudovirus neutralization [13]: 0.017 µg/mL
4877_D15 (PGT-122) (antibody) | – | – | – | – | – | – | – | – | > 50 | > 50 | 0.778 | 0.493 | 0.013 | > 50 | 0.032 | 0.006 | 0.006 | 1.29 | 0.138 | > 50 | –
4858_P08 (PGT-123) (antibody) | – | – | – | – | – | – | – | – | > 50 | > 50 | 0.138 | 0.158 | 0.004 | > 50 | 0.011 | 0.001 | 0.004 | 1.78 | 0.15 | > 50 | neutralization IC50 [26]: 0.0038 µg/mL; neutralization IC80 [26]: 0.0106 µg/mL; neutralization IC90 [26]: 0.0194 µg/mL; neutralization IC95 [26]: 0.0343 µg/mL
4838_L06 (PGT-121) (antibody) | – | – | – | – | – | – | – | – | > 50 | > 50 | 0.251 | 0.823 | 0.005 | > 50 | 0.007 | 0.002 | 0.005 | 1.67 | 0.102 | > 50 | –
4980_N08 (PGT-143) (antibody) | – | – | – | – | – | – | > 50 | 0.002 | – | – | – | – | – | – | – | – | – | – | – | – | IC50 (µg/mL), pseudovirus neutralization [27]: 0.107 µg/mL; IC50 (µg/mL), pseudovirus neutralization [28]: 0.031 µg/mL; IC50 (µg/mL), pseudovirus neutralization [29]: 0.048 µg/mL
